Measured values from publication PMC3215702, “The Nuclear Pore Complex Mediates Binding of the Mig1 Repressor to Target Promoters” (PLoS ONE, 2011).

B1: Nup53-lexA (natural protein, S. cerevisiae, UniProt Q03790 1-475, looked up)
chain: MADLQKQENSSRFTNVSVIAPESQGQHEQQKQQEQLEQQKQPTGLLKGLNGFPSAPQPLFMEDPPSTVSGELNDNPAWFNNPRKRAIPNSIIKRSNGQSLSPVRSDSADVPAFSNSNGFNNVTFGSKKDPRILKNVSPNDNNSANNNAHSSDLGTVVFDSNEAPPKTSLADWQKEDGIFSSKTDNIEDPNLSSNITFDGKPTATPSPFRPLEKTSRILNFFDKNTKTTPNTASSEASAGSKEGASTNWDDHAIIIFGYPETIANSIILHFANFGEILEDFRVIKDFKKLNSKNMSKSPSLTAQKYPIYTGDGWVKLTYKSELSKSRALQENGIIMNGTLIGCVSYSPAALKQLASLKKSEEIINNKTSSQTSLSSKDLSNYRKTEGIFEKAKAKAVTSKVRNAEFKVSKNSTSFKNPRRLEIKDGRSLFLRNRGKIHSGVLSSIESDLKKREQASKSKKSWLNRLNNWLFGWNDL
notes: Nup53, nucleoporin, S. cerevisiae; source: S. cerevisiae Mig1-GFP strain, in crude lysate

Key:
[1] = target: nuclear pore complex of nup84Δ cells (S. cerevisiae (endogenous)) (UniProt P35729); assay: co-fractionation with isolated NPCs (QFPD, quantitative fluorescent protein detection); glucose-grown (repressing) cells; nuclei isolated on sucrose/PVP-40 gradients, lysed with DNase I, NPC fraction floated on sucrose/Nycodenz gradient; GFP fluorescence of the fractions read on a Typhoon imager; values relative to wild type; also done in gcr1Δ and gcr1Δ nup84Δ strains
[2] = target: nuclear pore complex of nup133Δ cells (S. cerevisiae (endogenous)) (UniProt P52891); assay: as above
[3] = target: nuclear pore complex of nup120Δ cells (S. cerevisiae (endogenous)) (UniProt P52891); assay: as above
Mig1-GFP fusion protein = target: T1, Mig1-GFP fusion protein (S. cerevisiae, UniProt P27705 1-504); assay: co-IP; anti-GFP antibody added to crude lysate of glucose-grown cells, protein A sepharose; eluate blotted and probed with anti-lexA antibody (anti-GFP as control); conditions: partners not purified
T1 construct: Mig1, glucose-regulated repressor of S. cerevisiae; GFP tag integrated at the MIG1 locus; Called a fully functional fusion; also called GFP-tagged Mig1; source: S. cerevisiae, Mig1-GFP strain from the Yeast GFP Clone collection (Invitrogen), integrated GFP tag; in crude lysate or cell fractions
T1 sequence (P27705 whole entry, the tested form may be a part): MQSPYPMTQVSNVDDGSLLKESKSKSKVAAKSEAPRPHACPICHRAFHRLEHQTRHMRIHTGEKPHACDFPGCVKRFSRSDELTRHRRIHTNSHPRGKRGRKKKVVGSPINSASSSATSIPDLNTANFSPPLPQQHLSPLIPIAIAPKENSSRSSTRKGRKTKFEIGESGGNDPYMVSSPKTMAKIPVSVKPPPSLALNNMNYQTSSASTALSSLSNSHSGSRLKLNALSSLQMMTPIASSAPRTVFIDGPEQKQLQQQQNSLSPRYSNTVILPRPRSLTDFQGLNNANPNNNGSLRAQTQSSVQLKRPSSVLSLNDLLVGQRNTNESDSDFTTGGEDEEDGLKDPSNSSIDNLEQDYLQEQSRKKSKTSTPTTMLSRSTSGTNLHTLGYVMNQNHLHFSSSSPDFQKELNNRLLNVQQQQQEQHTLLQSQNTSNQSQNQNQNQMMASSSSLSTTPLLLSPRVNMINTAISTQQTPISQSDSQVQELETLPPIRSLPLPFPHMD

nuclear pore complex of nup84Δ cells (S. cerevisiae (endogenous)), sequence (P35729 whole entry, looked up, stated change not applied, one chain of several): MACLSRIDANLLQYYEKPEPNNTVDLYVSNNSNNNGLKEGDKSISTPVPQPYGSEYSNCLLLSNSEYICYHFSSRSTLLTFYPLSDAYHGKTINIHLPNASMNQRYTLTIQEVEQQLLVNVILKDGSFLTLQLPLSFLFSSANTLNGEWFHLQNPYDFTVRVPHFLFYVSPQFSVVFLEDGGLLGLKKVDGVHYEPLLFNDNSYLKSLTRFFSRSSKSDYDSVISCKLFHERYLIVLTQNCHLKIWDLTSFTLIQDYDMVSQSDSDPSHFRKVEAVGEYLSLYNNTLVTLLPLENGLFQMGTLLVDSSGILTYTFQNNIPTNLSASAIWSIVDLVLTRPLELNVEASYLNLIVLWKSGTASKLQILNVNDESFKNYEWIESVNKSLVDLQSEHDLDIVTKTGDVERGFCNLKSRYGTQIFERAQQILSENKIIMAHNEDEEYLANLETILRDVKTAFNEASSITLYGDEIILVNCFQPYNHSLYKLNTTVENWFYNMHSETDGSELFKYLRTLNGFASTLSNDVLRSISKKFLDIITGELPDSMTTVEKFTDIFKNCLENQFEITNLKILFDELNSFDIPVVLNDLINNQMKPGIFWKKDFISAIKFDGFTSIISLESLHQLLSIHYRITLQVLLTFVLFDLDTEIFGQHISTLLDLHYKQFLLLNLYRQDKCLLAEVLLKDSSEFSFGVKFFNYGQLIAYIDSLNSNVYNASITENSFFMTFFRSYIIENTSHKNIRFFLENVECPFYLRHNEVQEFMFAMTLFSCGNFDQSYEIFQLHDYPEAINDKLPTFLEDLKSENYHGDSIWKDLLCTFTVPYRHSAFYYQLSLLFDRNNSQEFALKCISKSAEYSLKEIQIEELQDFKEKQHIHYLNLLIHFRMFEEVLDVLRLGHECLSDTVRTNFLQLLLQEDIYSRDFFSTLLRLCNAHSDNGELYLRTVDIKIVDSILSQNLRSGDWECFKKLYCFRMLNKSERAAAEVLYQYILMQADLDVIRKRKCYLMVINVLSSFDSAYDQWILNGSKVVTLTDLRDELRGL
nuclear pore complex of nup120Δ cells (S. cerevisiae (endogenous)), sequence (P52891 whole entry, looked up, stated change not applied, the tested form may be a part, one chain of several): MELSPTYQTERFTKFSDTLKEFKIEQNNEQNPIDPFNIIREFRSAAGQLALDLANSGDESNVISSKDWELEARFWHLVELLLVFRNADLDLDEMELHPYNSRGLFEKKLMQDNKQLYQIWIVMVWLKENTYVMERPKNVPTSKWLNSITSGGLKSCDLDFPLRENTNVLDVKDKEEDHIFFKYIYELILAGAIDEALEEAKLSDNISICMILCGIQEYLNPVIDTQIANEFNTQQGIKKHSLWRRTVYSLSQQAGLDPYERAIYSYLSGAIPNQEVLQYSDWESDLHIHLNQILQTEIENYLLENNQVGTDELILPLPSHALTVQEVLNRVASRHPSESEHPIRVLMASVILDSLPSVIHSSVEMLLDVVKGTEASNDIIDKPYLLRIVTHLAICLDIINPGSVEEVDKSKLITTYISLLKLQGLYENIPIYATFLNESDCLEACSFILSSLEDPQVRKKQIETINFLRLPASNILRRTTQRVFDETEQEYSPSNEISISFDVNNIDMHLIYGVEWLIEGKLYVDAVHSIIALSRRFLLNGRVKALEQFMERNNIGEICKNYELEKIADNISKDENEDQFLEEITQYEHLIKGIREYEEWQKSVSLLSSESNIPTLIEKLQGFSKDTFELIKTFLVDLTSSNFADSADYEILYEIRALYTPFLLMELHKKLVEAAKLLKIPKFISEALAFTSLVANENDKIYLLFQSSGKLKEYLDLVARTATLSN
nuclear pore complex of nup133Δ cells (S. cerevisiae (endogenous)), sequence (P52891 whole entry, looked up, stated change not applied, one chain of several): as the sequence (P52891 whole entry, looked up, stated change not applied, the tested form may be a part, one chain of several) above

Molecule	perinuclear Mig1 relative to wild type (relative to wild type (1.00)) [1]	perinuclear Mig1 relative to wild type (relative to wild type (1.00)) [2]	perinuclear Mig1 relative to wild type (relative to wild type (1.00)) [3]	fold reduction in co-immunoprecipitation relative to Nup84-lexA (Mig1-GFP fusion protein) [fold]
Mig1-GFP fusion protein (from UniProt P27705 1-504) (natural protein)	1.3	0.03	0.43	
B1				> 2
